Data on 53 sequences can be found in patent US7858322B2, “Method of determining inhibition of binding to TRPM7 protein” (NoNo, Inc., priority 2003, dated 2010).

Common to all, as to test: G assays, titrations or binding assays of peptides
For assay [1], the target named is T1, INADL d3 (Homo sapiens, UniProt Q8NI35).
T1 construct: made in house; host or cells: E. coli (DH5α, BL21 or JM109)
T1 sequence (Q8NI35 with tags, fused parts or gaps): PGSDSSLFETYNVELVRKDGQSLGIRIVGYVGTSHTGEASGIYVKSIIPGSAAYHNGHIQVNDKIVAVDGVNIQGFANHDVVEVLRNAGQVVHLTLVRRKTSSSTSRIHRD
As to conditions: peptide demonstrated to bind INADL d3 in G assays.

Assay [2] addresses T2, PAR3 d3 (Homo sapiens, UniProt Q8TEW0, R682S).
T2 construct: made in house; host or cells: E. coli (DH5α, BL21 or JM109)
As to conditions: peptide demonstrated to bind PAR3 d3 in G assays.

For assay [3], the target named is T3, RIM2 d1 (Homo sapiens, UniProt Q9UQ26).
T3 construct: made in house; host or cells: E. coli (DH5α, BL21 or JM109)
T3 sequence (Q9UQ26 632-757): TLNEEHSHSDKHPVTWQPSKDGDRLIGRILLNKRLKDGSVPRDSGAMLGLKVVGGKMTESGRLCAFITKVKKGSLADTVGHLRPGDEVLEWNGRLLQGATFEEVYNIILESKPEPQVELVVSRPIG
As to conditions: peptide demonstrated to bind RIM2 d1 in G assays.

The target of assay [4] is T4, ZO-1 d2 (Homo sapiens, UniProt Q07157, DEL264-264).
T4 construct: made in house; host or cells: E. coli (DH5α, BL21 or JM109)
T4 sequence (Q07157 with tags, fused parts or gaps DEL264-264): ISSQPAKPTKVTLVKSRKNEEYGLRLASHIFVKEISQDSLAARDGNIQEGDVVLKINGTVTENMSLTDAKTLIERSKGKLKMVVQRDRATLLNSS
The conditions noted are these: peptide demonstrated to bind ZO-1 d2 in G assays.

No end group written: not given here. *: point of attachment. Biotin = O=C1N[C@H]2[C@H](CS[C@H]2CCCCC(=O)*)N1

T2 sequence (Q8TEW0 with tags, fused parts or gaps R682S): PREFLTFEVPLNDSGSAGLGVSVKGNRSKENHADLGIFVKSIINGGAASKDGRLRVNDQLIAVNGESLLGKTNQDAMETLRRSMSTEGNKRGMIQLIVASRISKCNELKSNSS

On to “RSGATIPLVGQDIIDLQTEV (Biotin-RSGATIPLVGQDIIDLQTEV)”, for which the POZ domain bound entry in assay [1] was “INADL D3”.

Turning to “KTMPAAMYRLLTAQEQPVYI (Biotin-KTMPAAMYRLLTAQEQPVYI)”, the POZ domain bound result in assay [2] is recorded as “PAR3 D3”.

Take “KYSAPRRPTATGDYDKKNYV (Biotin-KYSAPRRPTATGDYDKKNYV)”: the POZ domain bound entry in assay [2] is given as “PAR3 D3”.

For “PGQPPKVKSEFNSYSLTGYV (Biotin-PGQPPKVKSEFNSYSLTGYV)”, the POZ domain bound result in assay [2] is listed as “PAR3 D3”; in assay [1] it was “INADL D3”.

Take “VPSDNIDSQGRNASTNDSLL (Biotin-VPSDNIDSQGRNASTNDSLL)”: the POZ domain bound result in assay [1] is “INADL D3”.

As for “YGRKKRRQRRRGMTSSSSVV (Biotin-YGRKKRRQRRRGMTSSSSVV)”, in assay [3], the POZ domain bound entry is recorded as “RIM2 D1”.

Regarding “YSATYSELEDPGEMSPPIDL (Biotin-YSATYSELEDPGEMSPPIDL)”, the POZ domain bound entry in assay [1] is listed as “INADL D3”.

As for “YGRKKRRQRRRARGDRKRWA (Biotin-YGRKKRRQRRRARGDRKRWA)”, the POZ domain bound result in assay [3] was “RIM2 D1”; in assay [4] it was “ZO-1 D2”.

For NYKLNTDHAGSNDNIALLVQ, the figures for the POZ domain bound entry in assay [3] and in assay [4] were “RIM2 D1” and “ZO-1 D2”, respectively.

On to “KTMPAATYRLLTGQEQPVYL (Biotin-KTMPAATYRLLTGQEQPVYL)”, for which, in assay [2], the POZ domain bound result is on record as “PAR3 D3”.

Regarding “YGRKKRRQRRRARGDRLEIV (Biotin-YGRKKRRQRRRARGDRLEIV)”, the POZ domain bound result in assay [3] is “RIM2 D1”.

As to “YGRKKRRQRRRARSDRGIWA (Biotin-YGRKKRRQRRRARSDRGIWA)”, the POZ domain bound entry in assay [3] is recorded as “RIM2 D1”; in assay [4], “ZO-1 D2”.

As for “LERTSSVSPSTAEPELSIVF (Biotin-LERTSSVSPSTAEPELSIVF)”, in assay [2], the POZ domain bound entry is recorded as “PAR3 D3”.

Take “YGRKKRRQRRRQDERVETRV (Biotin-YGRKKRRQRRRQDERVETRV)”: the POZ domain bound entry in assay [3] was “RIM2 D1”.

As for “YGRKKRRQRRRARSDRKRIV (Biotin-YGRKKRRQRRRARSDRKRIV)”, the POZ domain bound entry in assay [3] is “RIM2 D1”.

With “DGGARTEDEVQSYPSKHDYV (Biotin-DGGARTEDEVQSYPSKHDYV)”, the POZ domain bound result in assay [2] is listed as “PAR3 D3”.

As for YGRKKRRQRRRARGDRKRIV, the POZ domain bound entry in assay [3] is listed as “RIM2 D1”; in assay [4] it was “ZO-1 D2”.

On to “YGRKKRRQRRRARGDRKRWL (Biotin-YGRKKRRQRRRARGDRKRWL)”, for which the figures for the POZ domain bound entry in assay [3] and in assay [4] were “RIM2 D1” and “ZO-1 D2”, respectively.

For the sequence YVYSRVKNLNSSEGVPDLLV, in assay [4], the POZ domain bound entry is on record as “ZO-1 D2”.

For the sequence “KTMPAAMFRLLTGQETPLYI (Biotin-KTMPAAMFRLLTGQETPLYI)”, in assay [2], the POZ domain bound entry is “PAR3 D3”.

For the sequence “SSPDSSYQGKGFVMSRAMYV (Biotin-SSPDSSYQGKGFVMSRAMYV)”, the POZ domain bound entry in assay [2] is “PAR3 D3”.

Regarding “SSSRRDSSWSETSEASYSGL (Biotin-SSSRRDSSWSETSEASYSGL)”, the POZ domain bound entry is “RIM2 D1” in assay [3] and “ZO-1 D2” in assay [4].

Take “TTNNNPNSAVNIKKIFTDV (Biotin-TTNNNPNSAVNIKKIFTDV)”: the POZ domain bound result in assay [1] is “INADL D3”; in assay [4] it was “ZO-1 D2”.

For “YGRKKRRQRRRQDEEETIWA (Biotin-YGRKKRRQRRRQDEEETIWA)”, in assay [3], the POZ domain bound entry is given as “RIM2 D1”.

As for “LASKSAEEGKQIPDSLSTDL (Biotin-LASKSAEEGKQIPDSLSTDL)”, the results for the POZ domain bound entry in assay [2] and in assay [1] were “PAR3 D3” and “INADL D3”, respectively.

“QGDPALQDAGDSSRKEYFI (Biotin-QGDPALQDAGDSSRKEYFI)”: the POZ domain bound entry in assay [2] is given as “PAR3 D3”.

“LQFHRGSRAQSFLQTETSVI (Biotin-LQFHRGSRAQSFLQTETSVI)”: the POZ domain bound result in assay [2] is reported as “PAR3 D3”; in assay [1] it was “INADL D3”.

Consider “YGRKKRRQRRRARGDRKKIV (Biotin-YGRKKRRQRRRARGDRKKIV)”, for which the POZ domain bound result in assay [3] was “RIM2 D1”.

“YGRKKRRQRRRQDEEEGIWS (Biotin-YGRKKRRQRRRQDEEEGIWS)”: the POZ domain bound result in assay [3] is “RIM2 D1”.

In the case of “RRRRRRRGTNPAVAATSANL (Biotin-RRRRRRRGTNPAVAATSANL)”, the POZ domain bound entry in assay [4] is reported as “ZO-1 D2”.

On to “YGRKKRRQRRRAVAAASANL (Biotin-YGRKKRRQRRRAVAAASANL)”, for which the POZ domain bound result in assay [3] is “RIM2 D1”; in assay [4], “ZO-1 D2”.

Turning to YGRKKRRQRRRSEGVPDLLV, the POZ domain bound result was “PAR3 D3” in assay [2] and “ZO-1 D2” in assay [4].

As for “YGRKKRRQRRRLQRRRETQV (Biotin-YGRKKRRQRRRLQRRRETQV)”, the POZ domain bound entry in assay [3] is given as “RIM2 D1”.

Turning to “YGRKKRRQRRRQDEEEGIWA (Biotin-YGRKKRRQRRRQDEEEGIWA)”, the POZ domain bound entry in assay [3] was “RIM2 D1”; in assay [4], “ZO-1 D2”.

Take “YGRKKRRQRRRARGDVRLML (Biotin-YGRKKRRQRRRARGDVRLML)”: the POZ domain bound result in assay [3] was “RIM2 D1”.

Take “RRRRRRRGNTTDKELEVLSL (Biotin-RRRRRRRGNTTDKELEVLSL)”: in assay [4], the POZ domain bound result is given as “ZO-1 D2”.

For ENLELPVNPSSWSERISSV, the POZ domain bound result in assay [1] was “INADL D3”.

On to “YGRKKRRQRRRSRTVREIWA (Biotin-YGRKKRRQRRRSRTVREIWA)”, for which the POZ domain bound entry in assay [3] is on record as “RIM2 D1”.

In the case of “STDNLVRPFMDTLASHQLYI (Biotin-STDNLVRPFMDTLASHQLYI)”, the POZ domain bound result is given as “PAR3 D3” in assay [2] and “INADL D3” in assay [1].

Consider “YGRKKRRQRRRAVAATYSNL (Biotin-YGRKKRRQRRRAVAATYSNL)”, for which the POZ domain bound entry in assay [3] is on record as “RIM2 D1”; in assay [4] it was “ZO-1 D2”.

For the sequence “PSSRASSRASSRPRPDDLEI (Biotin-PSSRASSRASSRPRPDDLEI)”, the POZ domain bound entry in assay [4] is “ZO-1 D2”.

Take “SLIGPVQKEYQRELGKLSSP (Biotin-SLIGPVQKEYQRELGKLSSP)”: in assay [1], the POZ domain bound result is “INADL D3”.

For “LNSCSNRRVYKKMPSIESDV (Biotin-LNSCSNRRVYKKMPSIESDV)”, the figures for the POZ domain bound entry in assay [1] and in assay [4] were “INADL D3” and “ZO-1 D2”, respectively.

As for “YGRKKRRQRRRSVTSTSINL (Biotin-YGRKKRRQRRRSVTSTSINL)”, the POZ domain bound entry in assay [3] was “RIM2 D1”.

In the case of “TEGNESSEATSPVNAIYSLA (Biotin-TEGNESSEATSPVNAIYSLA)”, the POZ domain bound entry in assay [4] is on record as “ZO-1 D2”.

“YGRKKRRQRRRAVAATGIWA (Biotin-YGRKKRRQRRRAVAATGIWA)”: the POZ domain bound entry in assay [3] is listed as “RIM2 D1”.

Take “ELLQFCRTPNPALKNGQYWV (Biotin-ELLQFCRTPNPALKNGQYWV)”: the POZ domain bound entry in assay [2] is listed as “PAR3 D3”; in assay [1] it was “INADL D3”; in assay [4], “ZO-1 D2”.

Consider “YGRKKRRQRRRARGDRRRIV (Biotin-YGRKKRRQRRRARGDRRRIV)”, for which the POZ domain bound result in assay [3] is listed as “RIM2 D1”.

Regarding YGRKKRRQRRRGASADSTQA, the POZ domain bound result in assay [2] was “PAR3 D3”; in assay [3] it was “RIM2 D1”; in assay [4], “ZO-1 D2”.

Take “YGRKKRRQRRRARSDRKRIA (Biotin-YGRKKRRQRRRARSDRKRIA)”: in assay [3], the POZ domain bound entry was “RIM2 D1”.

Take “HAMNAAPRAMENAPALRTSH (Biotin-HAMNAAPRAMENAPALRTSH)”: the POZ domain bound result in assay [1] was “INADL D3”.

Take “KAGYRAPRSYPKSNSSKEYV (Biotin-KAGYRAPRSYPKSNSSKEYV)”: the POZ domain bound result in assay [2] is on record as “PAR3 D3”.

Turning to YGRKKRRQRRRDKELEVLSL, the POZ domain bound entry in assay [4] was “ZO-1 D2”.
